Measurements reported in US20260167699A1 (Chugai, published 2026).

B1: GpH7-A5/GpH7-B3 variant K326_02A/GpL16-k0 (antibody, human IgG1, kappa)
heavy 1: not shown
heavy 2: not shown
light: DIVMTQSPLSLPVTPGEPASISCQASESLVHSNRNTYLHWYLQKPGQSPQLLIYKVSNRFSGVPDRFSGSGSGTDFTLKISRVEAEDVGVYYCSQNTHVPPTFGQGTKVEIERTVAAPSVFIFPPSDEQLKSGTASVVCLLNNFYPREAKVQWKVDNALQSGNSQESVTEQDSKDSTYSLSSTLTLSKADYEKHKVYACEVTHQGLSSPVTKSFNRGEC
notes: copies: 1 + 1 + 2
B2: GpH7-A5/GpH7-B3 variant K326_03V/GpL16-k0 (antibody, human IgG1, kappa)
heavy 1: not shown
heavy 2: not shown
light: DIVMTQSPLSLPVTPGEPASISCQASESLVHSNRNTYLHWYLQKPGQSPQLLIYKVSNRFSGVPDRFSGSGSGTDFTLKISRVEAEDVGVYYCSQNTHVPPTFGQGTKVEIERTVAAPSVFIFPPSDEQLKSGTASVVCLLNNFYPREAKVQWKVDNALQSGNSQESVTEQDSKDSTYSLSSTLTLSKADYEKHKVYACEVTHQGLSSPVTKSFNRGEC
notes: copies: 1 + 1 + 2
B3: GpH7-A5/GpH7-B3 variant K326_04F/GpL16-k0 (antibody, human IgG1, kappa)
heavy 1: not shown
heavy 2: not shown
light: DIVMTQSPLSLPVTPGEPASISCQASESLVHSNRNTYLHWYLQKPGQSPQLLIYKVSNRFSGVPDRFSGSGSGTDFTLKISRVEAEDVGVYYCSQNTHVPPTFGQGTKVEIERTVAAPSVFIFPPSDEQLKSGTASVVCLLNNFYPREAKVQWKVDNALQSGNSQESVTEQDSKDSTYSLSSTLTLSKADYEKHKVYACEVTHQGLSSPVTKSFNRGEC
notes: copies: 1 + 1 + 2
B4: GpH7-A5/GpH7-B3 variant K326_05P/GpL16-k0 (antibody, human IgG1, kappa)
heavy 1: not shown
heavy 2: not shown
light: DIVMTQSPLSLPVTPGEPASISCQASESLVHSNRNTYLHWYLQKPGQSPQLLIYKVSNRFSGVPDRFSGSGSGTDFTLKISRVEAEDVGVYYCSQNTHVPPTFGQGTKVEIERTVAAPSVFIFPPSDEQLKSGTASVVCLLNNFYPREAKVQWKVDNALQSGNSQESVTEQDSKDSTYSLSSTLTLSKADYEKHKVYACEVTHQGLSSPVTKSFNRGEC
notes: copies: 1 + 1 + 2
B5: GpH7-A5/GpH7-B3 variant K326_06M/GpL16-k0 (antibody, human IgG1, kappa)
heavy 1: not shown
heavy 2: not shown
light: DIVMTQSPLSLPVTPGEPASISCQASESLVHSNRNTYLHWYLQKPGQSPQLLIYKVSNRFSGVPDRFSGSGSGTDFTLKISRVEAEDVGVYYCSQNTHVPPTFGQGTKVEIERTVAAPSVFIFPPSDEQLKSGTASVVCLLNNFYPREAKVQWKVDNALQSGNSQESVTEQDSKDSTYSLSSTLTLSKADYEKHKVYACEVTHQGLSSPVTKSFNRGEC
notes: copies: 1 + 1 + 2
B6: GpH7-A5/GpH7-B3 variant K326_07I/GpL16-k0 (antibody, human IgG1, kappa)
heavy 1: not shown
heavy 2: not shown
light: DIVMTQSPLSLPVTPGEPASISCQASESLVHSNRNTYLHWYLQKPGQSPQLLIYKVSNRFSGVPDRFSGSGSGTDFTLKISRVEAEDVGVYYCSQNTHVPPTFGQGTKVEIERTVAAPSVFIFPPSDEQLKSGTASVVCLLNNFYPREAKVQWKVDNALQSGNSQESVTEQDSKDSTYSLSSTLTLSKADYEKHKVYACEVTHQGLSSPVTKSFNRGEC
notes: copies: 1 + 1 + 2
B7: GpH7-A5/GpH7-B3 variant K326_08L/GpL16-k0 (antibody, human IgG1, kappa)
heavy 1: not shown
heavy 2: not shown
light: DIVMTQSPLSLPVTPGEPASISCQASESLVHSNRNTYLHWYLQKPGQSPQLLIYKVSNRFSGVPDRFSGSGSGTDFTLKISRVEAEDVGVYYCSQNTHVPPTFGQGTKVEIERTVAAPSVFIFPPSDEQLKSGTASVVCLLNNFYPREAKVQWKVDNALQSGNSQESVTEQDSKDSTYSLSSTLTLSKADYEKHKVYACEVTHQGLSSPVTKSFNRGEC
notes: copies: 1 + 1 + 2
B8: GpH7-A5/GpH7-B3 variant K326_09D/GpL16-k0 (antibody, human IgG1, kappa)
heavy 1: not shown
heavy 2: not shown
light: DIVMTQSPLSLPVTPGEPASISCQASESLVHSNRNTYLHWYLQKPGQSPQLLIYKVSNRFSGVPDRFSGSGSGTDFTLKISRVEAEDVGVYYCSQNTHVPPTFGQGTKVEIERTVAAPSVFIFPPSDEQLKSGTASVVCLLNNFYPREAKVQWKVDNALQSGNSQESVTEQDSKDSTYSLSSTLTLSKADYEKHKVYACEVTHQGLSSPVTKSFNRGEC
notes: copies: 1 + 1 + 2
B9: GpH7-A5/GpH7-B3 variant K326_10E/GpL16-k0 (antibody, human IgG1, kappa)
heavy 1: not shown
heavy 2: not shown
light: DIVMTQSPLSLPVTPGEPASISCQASESLVHSNRNTYLHWYLQKPGQSPQLLIYKVSNRFSGVPDRFSGSGSGTDFTLKISRVEAEDVGVYYCSQNTHVPPTFGQGTKVEIERTVAAPSVFIFPPSDEQLKSGTASVVCLLNNFYPREAKVQWKVDNALQSGNSQESVTEQDSKDSTYSLSSTLTLSKADYEKHKVYACEVTHQGLSSPVTKSFNRGEC
notes: copies: 1 + 1 + 2
B10: GpH7-A5/GpH7-B3 variant K326_12R/GpL16-k0 (antibody, human IgG1, kappa)
heavy 1: not shown
heavy 2: not shown
light: DIVMTQSPLSLPVTPGEPASISCQASESLVHSNRNTYLHWYLQKPGQSPQLLIYKVSNRFSGVPDRFSGSGSGTDFTLKISRVEAEDVGVYYCSQNTHVPPTFGQGTKVEIERTVAAPSVFIFPPSDEQLKSGTASVVCLLNNFYPREAKVQWKVDNALQSGNSQESVTEQDSKDSTYSLSSTLTLSKADYEKHKVYACEVTHQGLSSPVTKSFNRGEC
notes: copies: 1 + 1 + 2
B11: GpH7-A5/GpH7-B3 variant K326_13S/GpL16-k0 (antibody, human IgG1, kappa)
heavy 1: not shown
heavy 2: not shown
light: DIVMTQSPLSLPVTPGEPASISCQASESLVHSNRNTYLHWYLQKPGQSPQLLIYKVSNRFSGVPDRFSGSGSGTDFTLKISRVEAEDVGVYYCSQNTHVPPTFGQGTKVEIERTVAAPSVFIFPPSDEQLKSGTASVVCLLNNFYPREAKVQWKVDNALQSGNSQESVTEQDSKDSTYSLSSTLTLSKADYEKHKVYACEVTHQGLSSPVTKSFNRGEC
notes: copies: 1 + 1 + 2

molecular target: T1, FcγRIIIa (human, UniProt P08637 17-208); test: SPR (Biacore);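 further: antibody variants captured on an SPR sensor chip, with FcγRIIIa passed over as analyte in HBS-EP+ buffer at 25 °C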
T1 construct: extracellular domain; also called 3a; FcγRIIIa extracellular domain
T1 sequence (P08637 other isoform, or with tags, fused parts or gaps): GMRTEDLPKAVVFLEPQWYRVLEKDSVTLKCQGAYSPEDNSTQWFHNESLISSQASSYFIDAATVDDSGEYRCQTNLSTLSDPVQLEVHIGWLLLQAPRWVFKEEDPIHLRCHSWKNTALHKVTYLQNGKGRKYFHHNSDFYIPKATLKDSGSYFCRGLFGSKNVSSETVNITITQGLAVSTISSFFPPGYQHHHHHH

Point of comparison: B3, “He/Con 3a” value 114 % of GpH7-A5/GpH7-B3/GpL16-k0. Against it:
- B1 — higher, 130 % of GpH7-A5/GpH7-B3/GpL16-k0
- B2 — higher, 135 % of GpH7-A5/GpH7-B3/GpL16-k0
- B4 — higher, 117 % of GpH7-A5/GpH7-B3/GpL16-k0
- B5 — higher, 127 % of GpH7-A5/GpH7-B3/GpL16-k0
- B6 — higher, 153 % of GpH7-A5/GpH7-B3/GpL16-k0
- B7 — higher, 126 % of GpH7-A5/GpH7-B3/GpL16-k0
- B8 — higher, 148 % of GpH7-A5/GpH7-B3/GpL16-k0
- B9 — higher, 138 % of GpH7-A5/GpH7-B3/GpL16-k0
- B10 — lower, 101 % of GpH7-A5/GpH7-B3/GpL16-k0
- B11 — higher, 118 % of GpH7-A5/GpH7-B3/GpL16-k0
